Measurements published in the supplement of paper PMC10126150.
± gives the standard deviation of the averaged measurements.

Test system: ATP
Assay: switch fluorescence ratio, 500 uM ATP over buffer (Cy3 cluster intensity, sum of 5 cycles each) (fold (ratio)); higher = stronger signal-on switching upon ATP binding; sequences stand for … in TCGTCGGCAGCGTCAGATGTGTATAAGAGACAGTTTTTTTTTTTTTTTTTTTTTTTTT…TC
Settings: aptamer strand: ATP DNA aptamer (quencher-CACCTGGGGGAGTATTGCGGAGGAAGG + anchor), 100 nM annealed; ATP concentration: 500 uM
In short: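 Cy3-labelled switching-strand clusters on a modified Illumina MiSeq flow-cell were annealed to 100 nM quencher-labelled ATP aptamer and imaged first in selection buffer, then after 15 min with 500 uM ATP at 22 °C. NaOH stripping and re-annealing separated each of five buffer/ATP cycles, and clusters outside 100-1000 RFU were excluded. The fluorescence ratio sums target-cycle Cy3 intensity over buffer-cycle Cy3 intensity per cluster and averages it per switch-domain sequence.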
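Also: ATP exposure 15 min at 22 °C before imaging.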

TTAAGAACGG
switch fluorescence ratio: 1.03 ± 0.075

TTAAGAAG
switch fluorescence ratio: 0.996 ± 0.015

TTAAGAATTT
switch fluorescence ratio: 0.991 ± 0.031

TTAAGACTGT
switch fluorescence ratio: 1.01 ± 0.037

TTAAGACTTG
switch fluorescence ratio: 1 ± 0.012

TTAAGATGGG
switch fluorescence ratio: 0.996 ± 0.025

TTAAGCACTT
switch fluorescence ratio: 1.19 ± 0.062

TTAAGCCAGG
switch fluorescence ratio: 1.16 ± 0.14

TTAAGCCTGT
switch fluorescence ratio: 0.969 ± 0.021

TTAAGCGTAG
switch fluorescence ratio: 1.01 ± 0.013

TTAAGCTAAT
switch fluorescence ratio: 1.42 ± 0.5

TTAAGCTCGC
switch fluorescence ratio: 0.986 ± 0.045

TTAAGCTCGG
switch fluorescence ratio: 0.989 ± 0.037

TTAAGCTGGT
switch fluorescence ratio: 0.985 ± 0.022

TTAAGCTTGA
switch fluorescence ratio: 1.015 ± 0.0062

TTAAGGAGTG
switch fluorescence ratio: 0.95 ± 0.0099

TTAAGGGAAC
switch fluorescence ratio: 0.9966 ± 0.0052

TTAAGGGAGG
switch fluorescence ratio: 0.992 ± 0.03

TTAAGGGCAG
switch fluorescence ratio: 1.01 ± 0.03

TTAAGGGCCA
switch fluorescence ratio: 0.9709 ± 0.0035

TTAAGGGGA
switch fluorescence ratio: 1.06 ± 0.11

TTAAGGGGTT
switch fluorescence ratio: 1.03 ± 0.044

TTAAGGGTTG
switch fluorescence ratio: 1.02 ± 0.019

TTAAGTACGA
switch fluorescence ratio: 1.27 ± 0.041

TTAAGTGCCC
switch fluorescence ratio: 1 ± 0.021

TTAAGTTCTT
switch fluorescence ratio: 0.996 ± 0.019

TTAAGTTGGT
switch fluorescence ratio: 0.997 ± 0.045

TTAATAAATC
switch fluorescence ratio: 0.996 ± 0.021

TTAATAAATG
switch fluorescence ratio: 1 ± 0.015

TTAATAGTTG
switch fluorescence ratio: 0.97177 ± 0.00065

TTAATATCCT
switch fluorescence ratio: 1.06 ± 0.026

TTAATCAGGT
switch fluorescence ratio: 1.01 ± 0.016

TTAATCCAGT
switch fluorescence ratio: 1.02 ± 0.035

TTAATCGATG
switch fluorescence ratio: 1 ± 0.019

TTAATGCAGG
switch fluorescence ratio: 1.006 ± 0.006

TTAATGCTTT
switch fluorescence ratio: 1.13 ± 0.23

TTAATGGTAT
switch fluorescence ratio: 1.02 ± 0.021

TTAATGTTTG
switch fluorescence ratio: 0.997 ± 0.042

TTAATTAACC
switch fluorescence ratio: 1.13 ± 0.098

TTAATTAATA
switch fluorescence ratio: 0.985 ± 0.013

TTAATTAATG
switch fluorescence ratio: 1.05 ± 0.089

TTAATTACGG
switch fluorescence ratio: 1.01 ± 0.017

TTAATTAGGT
switch fluorescence ratio: 1.02 ± 0.071

TTAATTCCAG
switch fluorescence ratio: 1.01 ± 0.029

TTAATTGTTT
switch fluorescence ratio: 0.989 ± 0.018

TTAATTTATG
switch fluorescence ratio: 0.976 ± 0.035

TTAATTTTCC
switch fluorescence ratio: 1.46 ± 0.49

TTACAACGTA
switch fluorescence ratio: 1 ± 0.013

TTACAAGGAC
switch fluorescence ratio: 1.049 ± 0.0089

TTACACTTGT
switch fluorescence ratio: 1 ± 0.032

TTACAGCCTG
switch fluorescence ratio: 1 ± 0.04

TTACAGGGAG
switch fluorescence ratio: 1.02 ± 0.01

TTACAGTCGT
switch fluorescence ratio: 1.03 ± 0.022

TTACATGAAT
switch fluorescence ratio: 1.04 ± 0.033

TTACATGTCC
switch fluorescence ratio: 1.039 ± 0.0089

TTACATTTTA
switch fluorescence ratio: 1.02 ± 0.015

TTACCACAGC
switch fluorescence ratio: 1.05 ± 0.041

TTACCAGATT
switch fluorescence ratio: 0.982 ± 0.033

TTACCATCCT
switch fluorescence ratio: 1.19 ± 0.029

TTACCCAGAG
switch fluorescence ratio: 1.1 ± 0.064

TTACCCTGGG
switch fluorescence ratio: 1.07 ± 0.074

TTACCGACGG
switch fluorescence ratio: 1.1 ± 0.069

TTACCTCCGT
switch fluorescence ratio: 2.19 ± 0.14

TTACCTTTGT
switch fluorescence ratio: 1.05 ± 0.024

TTACGAGGCG
switch fluorescence ratio: 1.004 ± 0.0032

TTACGCGAAA
switch fluorescence ratio: 2.57 ± 2.1

TTACGGAGGG
switch fluorescence ratio: 1.02 ± 0.038

TTACGGCTGC
switch fluorescence ratio: 1.03 ± 0.058

TTACGGGCAC
switch fluorescence ratio: 1.18 ± 0.012

TTACGGGGGT
switch fluorescence ratio: 1.017 ± 0.01

TTACGGGGTT
switch fluorescence ratio: 0.988 ± 0.035

TTACGGTGAC
switch fluorescence ratio: 1.17 ± 0.059

TTACGGTTTT
switch fluorescence ratio: 1.01 ± 0.023

TTACGTGTGA
switch fluorescence ratio: 1.05 ± 0.073

TTACGTTCTT
switch fluorescence ratio: 1.048 ± 0.0096

TTACTACGTA
switch fluorescence ratio: 1.04 ± 0.059

TTACTCGGGA
switch fluorescence ratio: 1.04 ± 0.012

TTACTCGGGC
switch fluorescence ratio: 0.999 ± 0.019

TTACTCTTCT
switch fluorescence ratio: 0.972 ± 0.04

TTACTGAAAA
switch fluorescence ratio: 1.04 ± 0.025

TTACTGAACT
switch fluorescence ratio: 1.19 ± 0.025

TTACTGGGGA
switch fluorescence ratio: 1.04 ± 0.011

TTACTTATCT
switch fluorescence ratio: 1.02 ± 0.033

TTACTTCGTA
switch fluorescence ratio: 1.06 ± 0.07

TTACTTTGGG
switch fluorescence ratio: 0.9892 ± 0.0065

TTACTTTTGT
switch fluorescence ratio: 1.021 ± 0.0039

TTAGAAAGTT
switch fluorescence ratio: 1.03 ± 0.091

TTAGAAATAT
switch fluorescence ratio: 1.01 ± 0.016

TTAGAAATTT
switch fluorescence ratio: 1.01 ± 0.02

TTAGAATTAG
switch fluorescence ratio: 1 ± 0.017

TTAGACAAGG
switch fluorescence ratio: 0.95377 ± 0.00078

TTAGACACAA
switch fluorescence ratio: 1.01 ± 0.046

TTAGACTCTG
switch fluorescence ratio: 1.05 ± 0.071

TTAGACTTTT
switch fluorescence ratio: 1.03 ± 0.012

TTAGAGAGCG
switch fluorescence ratio: 1.018 ± 0.0096

TTAGAGTATA
switch fluorescence ratio: 1 ± 0.00038

TTAGAGTGCA
switch fluorescence ratio: 1.02 ± 0.019

TTAGATATTT
switch fluorescence ratio: 0.98 ± 0.024

TTAGATCGCC
switch fluorescence ratio: 0.969 ± 0.027

TTAGATCGGG
switch fluorescence ratio: 0.989 ± 0.011

TTAGATGAAT
switch fluorescence ratio: 1 ± 0.033

TTAGCACGTC
switch fluorescence ratio: 1.076 ± 0.0074

TTAGCCCATG
switch fluorescence ratio: 1.03 ± 0.029

TTAGCGAAGG
switch fluorescence ratio: 1.003 ± 0.0046

TTAGCGCTTT
switch fluorescence ratio: 0.9853 ± 0.0082

TTAGCGGCTG
switch fluorescence ratio: 0.9585 ± 0.0026

TTAGCGGGAT
switch fluorescence ratio: 1.01 ± 0.044

TTAGCGTGGG
switch fluorescence ratio: 0.99 ± 0.023

TTAGCGTTGT
switch fluorescence ratio: 0.96 ± 0.028

TTAGCTGGTG
switch fluorescence ratio: 1.07 ± 0.067

TTAGCTGTGC
switch fluorescence ratio: 1.02 ± 0.067

TTAGCTGTTT
switch fluorescence ratio: 0.995 ± 0.035

TTAGCTTGGT
switch fluorescence ratio: 0.999 ± 0.043

TTAGCTTGTA
switch fluorescence ratio: 1.07 ± 0.088

TTAGCTTTTT
switch fluorescence ratio: 1.01 ± 0.054

TTAGGAATTT
switch fluorescence ratio: 1.05 ± 0.075

TTAGGACGAT
switch fluorescence ratio: 0.997 ± 0.051

TTAGGAGAGC
switch fluorescence ratio: 0.979 ± 0.014

TTAGGAGATG
switch fluorescence ratio: 0.9802 ± 0.0059

TTAGGAGGGA
switch fluorescence ratio: 0.9949 ± 0.0064

TTAGGATAAT
switch fluorescence ratio: 1.031 ± 0.0072

TTAGGCCGGC
switch fluorescence ratio: 0.988 ± 0.11

TTAGGCGAGG
switch fluorescence ratio: 1.08 ± 0.16

TTAGGCGGCA
switch fluorescence ratio: 0.974 ± 0.034

TTAGGCGGGA
switch fluorescence ratio: 0.995 ± 0.046

TTAGGCTACT
switch fluorescence ratio: 1.01 ± 0.035

TTAGGGAAGG
switch fluorescence ratio: 0.993 ± 0.02

TTAGGGAATG
switch fluorescence ratio: 1 ± 0.07

TTAGGGACAG
switch fluorescence ratio: 0.987 ± 0.027

TTAGGGACGC
switch fluorescence ratio: 1.08 ± 0.025

TTAGGGAGGG
switch fluorescence ratio: 0.998 ± 0.032

TTAGGGCCTA
switch fluorescence ratio: 0.9844 ± 0.0097

TTAGGGGATG
switch fluorescence ratio: 1.026 ± 0.0098

TTAGGGGCGA
switch fluorescence ratio: 0.994 ± 0.012

TTAGGGGGAA
switch fluorescence ratio: 1.01 ± 0.025

TTAGGGGGG
switch fluorescence ratio: 1.01 ± 0.026

TTAGGGGGTT
switch fluorescence ratio: 1.04 ± 0.062

TTAGGGTAGG
switch fluorescence ratio: 0.97 ± 0.039

TTAGGGTATG
switch fluorescence ratio: 1.03 ± 0.029

TTAGGGTGAT
switch fluorescence ratio: 0.974 ± 0.059

TTAGGGTGTT
switch fluorescence ratio: 1 ± 0.07

TTAGGGTTCC
switch fluorescence ratio: 0.992 ± 0.035

TTAGGTAGGG
switch fluorescence ratio: 0.988 ± 0.028

TTAGGTCATG
switch fluorescence ratio: 0.9877 ± 0.0034

TTAGGTCTTC
switch fluorescence ratio: 1.02 ± 0.014

TTAGGTGCAA
switch fluorescence ratio: 1.17 ± 0.11

TTAGGTTTTT
switch fluorescence ratio: 1.08 ± 0.19

TTAGTAAAAT
switch fluorescence ratio: 1.01 ± 0.017

TTAGTAAACA
switch fluorescence ratio: 1.01 ± 0.049

TTAGTAAGGA
switch fluorescence ratio: 1.009 ± 0.0086

TTAGTAAGGT
switch fluorescence ratio: 1.01 ± 0.059

TTAGTACGAT
switch fluorescence ratio: 1.018 ± 0.0096

TTAGTATGAC
switch fluorescence ratio: 1.02 ± 0.042

TTAGTCACGC
switch fluorescence ratio: 1.029 ± 0.0092

TTAGTCAGGA
switch fluorescence ratio: 1.04 ± 0.057

TTAGTGCGGA
switch fluorescence ratio: 0.994 ± 0.012

TTAGTGGGGC
switch fluorescence ratio: 1.03 ± 0.041

TTAGTTGAAT
switch fluorescence ratio: 0.985 ± 0.04

TTATAAAACC
switch fluorescence ratio: 1.02 ± 0.028

TTATAAAGGT
switch fluorescence ratio: 1.03 ± 0.079

TTATAACTCG
switch fluorescence ratio: 0.995 ± 0.035

TTATAAGAGT
switch fluorescence ratio: 0.987 ± 0.025

TTATAAGCAG
switch fluorescence ratio: 1.02 ± 0.017

TTATAAGGGG
switch fluorescence ratio: 0.979 ± 0.04

TTATAAGTAT
switch fluorescence ratio: 1 ± 0.031

TTATAATGGG
switch fluorescence ratio: 0.988 ± 0.025

TTATACCGTT
switch fluorescence ratio: 0.999 ± 0.01

TTATACGGTT
switch fluorescence ratio: 1.01 ± 0.012

TTATAGAAGA
switch fluorescence ratio: 1.01 ± 0.0082

TTATAGATGT
switch fluorescence ratio: 0.992 ± 0.027

TTATAGCACC
switch fluorescence ratio: 1.06 ± 0.021

TTATAGGCGC
switch fluorescence ratio: 1.03 ± 0.029

TTATAGTTGA
switch fluorescence ratio: 0.9944 ± 0.0015

TTATAGTTTC
switch fluorescence ratio: 1.03 ± 0.057

TTATATAAGT
switch fluorescence ratio: 1.02 ± 0.023

TTATATCCGT
switch fluorescence ratio: 1.01 ± 0.031

TTATATGAGG
switch fluorescence ratio: 0.962 ± 0.045

TTATATGGGA
switch fluorescence ratio: 1.01 ± 0.018

TTATATGTTG
switch fluorescence ratio: 1.02 ± 0.026

TTATATTAG
switch fluorescence ratio: 0.9817 ± 0.001

TTATATTAGA
switch fluorescence ratio: 0.971 ± 0.0099

TTATATTCCT
switch fluorescence ratio: 1.11 ± 0.048

TTATATTGTT
switch fluorescence ratio: 0.984 ± 0.017

TTATCAAGGG
switch fluorescence ratio: 0.975 ± 0.025

TTATCCAATT
switch fluorescence ratio: 0.9804 ± 0.0089

TTATCCGGCG
switch fluorescence ratio: 0.986 ± 0.056

TTATCCTGGG
switch fluorescence ratio: 1.01 ± 0.023

TTATCGAGGA
switch fluorescence ratio: 0.973 ± 0.021

TTATCGTATT
switch fluorescence ratio: 0.9872 ± 0.0053

TTATCGTGTT
switch fluorescence ratio: 0.984 ± 0.042

TTATCTGTTG
switch fluorescence ratio: 1 ± 0.058

TTATGAAATG
switch fluorescence ratio: 1 ± 0.025

TTATGACAAC
switch fluorescence ratio: 1.015 ± 0.0044

TTATGACCAG
switch fluorescence ratio: 1.009 ± 0.0095

TTATGAGCAA
switch fluorescence ratio: 1.8 ± 0.096

TTATGAGCGG
switch fluorescence ratio: 1.02 ± 0.048

TTATGAGGTT
switch fluorescence ratio: 1.02 ± 0.026

TTATGCAGGG
switch fluorescence ratio: 1.01 ± 0.012

TTATGCATGT
switch fluorescence ratio: 1.02 ± 0.038

TTATGCGGTG
switch fluorescence ratio: 1.0223 ± 0.00072
